The text below walks through data of the nanobody polyreactivity screen of Harvey et al. (2022).

A short description of the data set: yeast display, Sf9 membrane polyspecificity reagent, FACS + sequencing; frameworks hold sequencing errors. The method in brief: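 Nanobodies came from a synthetic yeast display library in Saccharomyces cerevisiae BJ5465, induced with galactose for 36–48 hours and stained for 1 hour at 4 °C with 10% biotinylated, detergent-solubilized Sf9 membrane reagent. Cells were enriched on streptavidin microbeads and then FACS-sorted, with low and high (top ~1%) gates set on anti-HA fluorescence for expression and streptavidin fluorescence for reagent binding. Each polyreactivity label reflects the gate a clone came from. Genes were amplified by colony PCR, sequenced by MiSeq 2 × 250 and filtered by CDR length.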
Regarding “QVQLVESGGGLVQAGGSLRFSCAASGSIFSVYAMGWYRQAPGKEREWVAAITSGTYTYADSVKGRFTISRDNAKNSVYLQMNSLKAEDTAVYYCAAESGSPGYYYWGQGTQVTVST”, the “polyreactivity (PSR sort gate)” value was “low polyreactivity”.
Regarding “QVQLEESGGCLVQAGGRIRLSCAASGLTFHRYAMGWYRQAPGKERELVAAINYSGGRTYYADSVKGRFTISRDNATNNVYLQMNSLKPEDTAVYYCAAPSASGYYWGQGNQVTVSS”, the “polyreactivity (PSR sort gate)” value is recorded as “high polyreactivity”.
On to “QVQLVESGGGLVQAGGSLRLSCAASGFIDAYTMGWYRQAPGKERELVAAMTWSGGRTYYADSVKGRFTISRDNAKNTVYLQLYSLKPEDTAVYYCAKDVTPYSPDDDYWGQGTQVTVSS”, for which the “polyreactivity (PSR sort gate)” value was “low polyreactivity”.
For “QVQLVESGGGLVQAGGSLRLSCAASGRIFQVNDKGFYIQAPGKETELVASITYSGGSTYYADSVKGRFTISRDNAKITVYLQMNSLKPEDTAVYYCNKQNYVWVLVIYYYWGQGTQVTVSS” the value was “low polyreactivity”; for “QVQLVESGGGLVQAGGSLRLSCAASGRIFYRYSMGWYRQAPGKERELVAGISSGGRTNYADSVKGRFTISRDNAKNTVYLQMNSLKPEDTAVYYCNKARSRWSDARSSFGYDYWGQGTQVTVSS”, “low polyreactivity”; for “QVQLVESGGGLVQAGGSLRLSCAASGRTFDPYARGGYRQAPGKERELVASISRGGSTYADSVKGRFTISRDNAKNTVYLQMNSLKPEDTAVYYCNTSLYTEGDAMDYWGQGTQVTVSS”, “low polyreactivity”.
Turning to “QVQLVESGGGLVQAGGSLRLSCAASGSTLVNNAMGWDRQAPGKEREWVAAITFSGGTTYYADSVKGRFTISRDNAKNTVYLQMNSLKPEDTAVYYCAAEIWLEYVGYDYWGQGTQVTVSS”, the “polyreactivity (PSR sort gate)” value is given as “high polyreactivity”.
The same measure for “QVHLVESGGGLVQAGGSLRLSCAASGRTFGWNVMGWYRQAPGKERELVAAISGSGGSTYYADSVKVRFTISRDNAKNTVYLQMNSLKPEDTAVYYCAALYGPGREYDYWGQGTQVTVSS”: “low polyreactivity”.
As for “QVQLVESGGGLVQAGGSLRLSCAASGFTFVYYAMGWYRQAPGKERELVATISGHGGRTYYADSVKGRFTISRDNAKNTVYLQMNSLKPEDTAVYYCAALLYIRSVGYDYWGQGTQVTVSS”, the “polyreactivity (PSR sort gate)” value was “low polyreactivity”.
With “QGQLEESGGGLVQAGGSLRLSCAASGFTFYDNAMGWYRQAPGKERELVAAISWSGGSTYADSVKGRFTISRDNAKNTVYLLMNSLKPEDTAVYYCNADAWLASGYRYDYWGQGTQVTVSA”, the “polyreactivity (PSR sort gate)” value is “low polyreactivity”.
Consider “QVQLVESGGGLVQAGGSLRLSCAASGRTFYSNAKGWSRQAPGKERELVAGISKRGTITYYADSVKGRFTISRDNAKNTVYLQMNSLKPEDTAVYYCAAKPPSYIVKGDGRDDYWGQGTQVTVSS”, for which the “polyreactivity (PSR sort gate)” value is “high polyreactivity”.
On to “QVQLVESGGGLVQAGGSLRLSCAASGSTFISYDMGWYRQAPGKERELVADITSVGGSTYYADSVKGRFTISRDNAKNTVYLQMNSLKPEDTAVYYCNAEAEWEEEGGSWGQGTQVTVSS”, for which the “polyreactivity (PSR sort gate)” value is “low polyreactivity”.
In the case of “QVQLVESGGGLVQAGGSLRLSCAASGSIFDIYCMGWYRHAPGKERELVASISGGAGSTNYADSVKGRFTISRDNAKNTVYLQMNSLKPEDTAVYYCAAEVYVPDYFQHKFDVEYEYWGQGTQVTVSS”, the “polyreactivity (PSR sort gate)” value is “low polyreactivity”.
The same measure for “QVQLVESGGGLVQAGASLRLSCAASGFTFGVYAMVWYRQAPGTVIELVAAISSSGGSTYYADSVKGRFTISRDNAKNTVYLQMNSLKPEDTAVYYCAKDTNSYYKYGYWGQGTQVTVSS”: “high polyreactivity”; for “QVQLVESGGGLVQAGGSLRLSCAASGSTFAWYAMGWYRQAPGKERELVAAISRTGRTYYADSVKGRFTISRDNAKNTVYLQMNSLKPEDTAVYYCAARIERFYRDQRYDYWGQGTQVTVSS”: “high polyreactivity”.
The same measure for “QVQLVESGGGSVQAGGSLRLSCSASGIIFWYYTMGRNRQAPGKERELVAAISCSSGITYYADSVKGRFTISRDNSKNTVYLQMNSLKPEDTAVYYCAARKFFWRSNYDYWGQGTQVTVSS”: “low polyreactivity”.
As for “QVHLVESGGGLVQAGGSLRLSCAASGGTIGTYAMGWYRQAPGKERELVAAISGRGGSTFYADSVKGRFTISRDNAKNSVYLQMNSLKPEDTAVYYSARGHGRSSKYDYWGQGTQVTVSS”, the “polyreactivity (PSR sort gate)” value was “high polyreactivity”.
For “QVQLVESGGGLVQAGGSLRLSCAASGRTLVRYAMGWYRQAPGKEREFVAGISYSGGSTYYADSVKGRFTISRDNAKNTVYLQMNSLKPEDTAVYYCAATTRGARKSGGNYWGQGTQVTVSS” the value was “high polyreactivity”; for “QVQLVESGGGLVQAGGSLRLSCDASGRIFVVYAMGWSRQAPGKERELVAAITGGGRTNYADSVKGRFTISRDNAKNTVYLQMNSLKPEDTAVYYCAAGTRSDARRYYYWGQGTQVTVSS”, “low polyreactivity”; for “QVQLEESGGGLVQAGGSLRLSCAASGFIFPHYAMGWYLQAPGKERELVAAISKSGDSTYYADSVKGRFTISRDNAKNTVYLQMNSLKPEDTAVYYCARRGRSLRWKYDYWGQGTQVTVSS”, “low polyreactivity”.
Consider “QVQLVESGGGLVQAGGTLRLSCAASGSTFRGYAMGWYRQAPGKERELVAAIRRAGSTNYAESVKGRFTISRDNAKNTVYLQMNSLKPEDTAVYYFADSKCLWYGASVSQKKAGMDSWGQGTQVTVSS”, for which the “polyreactivity (PSR sort gate)” value is “low polyreactivity”.
“QVQLVESGGGLVQAGGSLRLSCAASGRISRSKTMGWYRQATGKERELFAVINTWIGGSTYYADSVKGRFTISRDNAKNTVYLQMNRQKPEDTAVYYCAADATLWDWWLDYDYWGQVTQVTVSS”: the “polyreactivity (PSR sort gate)” value is listed as “high polyreactivity”.
For “QVQHVETGRDLVQAGGSLRLSCAAAGLIFVSYAMGGYRQAPGKERELVASITDSDSSTYYADSVKGRFTISRDNAKNTVYLQMNSLKPEDTAVYYCATGGRTEIWYPTLDYWGQGTQVTVSS”, the “polyreactivity (PSR sort gate)” value is “low polyreactivity”.
Turning to “QVQLVESGGGLVQAGGSLRLSCAASGRIFLRNDMGWYRQAPGKERELVAGISSDGSTYYADSVKGRFTISRDNAKNTVYLQMNSLKPEDTAVYYCAAERWGNPTDYQFWRPYDYWGQGTQVTVSS”, the “polyreactivity (PSR sort gate)” value is “low polyreactivity”.
The same measure for “QVQLVESGGGLVQAGGSLRLSCAASGRIFGSYVMGWYRQAPGKERELVAAISIGGITKYADSVKGRFTISRDNAKNTVYLQMNSLKPEDTAVYYCAARLVRRYDYDYWGQGTQVTVSS”: “high polyreactivity”; for “QVQLVESAGGLVQAGGSLRVSCAASGSTFSRYTMGWYRQAPGKERELVAAIRWSSGRTYYADSVKGRFTISRDNAKNTVYLQMNSLKPEDTAVYYCAALFPRGQADYAYWGQGTPVTVSS”: “high polyreactivity”; for “QVQLVESGGGLVQAGGSLRLSCAASGSIFYKNAMGWYRQAPGKERELVAVISWSGGSTSYADSVKGRFTISRDNAKNTVYLQMNSLKPEDTAVYYCAKEYFTDYLYEYDYWGQGTQVTVSS”: “low polyreactivity”.
Turning to “QVQLVESGGGLFQAGGSLRLSCAASGIIFYDYAMGRYRQPPAKERELVAAITSNGDNTYYADSVKWRFTISRDNAKNTVYLQMNILKPEDTAVYYCAVDGSFAADFDNYLEEYGYWGQGTQVTVSS”, the “polyreactivity (PSR sort gate)” value is “low polyreactivity”.
Consider “QVQLVESGGGLVQAGGSLRLSCAASGRTFSRYTMGWYRQAPGKERELVAAISVNGGTTHYADSVKGRFTISRDNAKNTVYLQMNSLKPEDTAVYYCNARRRVGKYKYDYWGQGTQVTVSS”, for which the “polyreactivity (PSR sort gate)” value is “high polyreactivity”.
For “QVQLVESGGGLVQAGGSLRLSCAASGYIFGYVMGWYRQAPGKERELVAAITYSSGNTYYADSVKGRFTISRDNAKNTVYLQMNSLKPEDTAVYYCAKQAYYKGRLAYGYWGQGTQVTVSS” the value was “high polyreactivity”; for “QVQLVESGGGLVQAGGSLRLSCAASGFSFPPYAMGWYRQAPGKERELVAAITTSGGSTYYADSVKGRFTISRDNAKNTVYLQMNSMKPEDTAVYYCAADWRYLGYTAMDYWGQGTQVTVSS”, “low polyreactivity”.
Turning to “QVQLVESGGGLVQAGGSLRLSCAASGSTFRVNAMGWYRQAPGKEREFVATIRGGGVRTYYADSVKGRFTISRDNAKNTVYLQMNSLKPEDTAVYYCAVAGGTPGAYRRFNYWGQGTQVTVSS”, the “polyreactivity (PSR sort gate)” value is given as “high polyreactivity”.
With “QVQLVESGGGLVQAGGSLRLSCAASGRIFGNYAMGWYRPATGKESELVAAISGGGSTYYADSVKGRFTISRDNAKNTVYLQMNSVKPEDTAVYYCAARFMWSVFGRKGGYWGQGTHVTVSS”, the “polyreactivity (PSR sort gate)” value is “low polyreactivity”.
Consider “QVQLVESGGGLVQAGGSLRLSCAASGSIFGVYAMGWYRQAPGTERELVAAISSRGSSTYYADSVKGRFTISRDNAKKTVYLQMLSLKPEDTAVYYCAARPGIRSYPPGYGYWGQGTQGTVSS”, for which the “polyreactivity (PSR sort gate)” value is “high polyreactivity”.
Turning to “QVQLVESGGGLVQAGGSLRLSCAASGFTLWLNAMGWYRQAPGKERELVAAITTSDDGTYYADSVKGRFTISRDTAKNTVYLQMNSLKPEDTAVYYCAADYYSVLYDYWGQGTQVTVSS”, the “polyreactivity (PSR sort gate)” value was “low polyreactivity”.
“QVQLVESGGGLVQAGGSLRLSCAASGSTFDAYAMGWYRQAPGKEWELVAAISTRGGRTDYADSVKGRFTISRDNAKNTVYLQMNSRKPEDTAVYYCTAVGARVNVRGTPAFDSWGQGTQVTVSS”: the “polyreactivity (PSR sort gate)” value was “high polyreactivity”.
In the case of “QVQLVESGGGLVQAGGSLRLSCAASGRTFSNYAMGWYRQAPGKERELVAAIRSGVRTYYADSVKGRFTISRDNAKNTVYLQMNSLKPEDTAVYYCAVATGLLYKSHGYWGQGTQVTVSS”, the “polyreactivity (PSR sort gate)” value is “low polyreactivity”.
Turning to “QVQLVESGGGLVQAGGSLRLSCAASGSTFWWYAMGWYRQAPGKERELVAAISIGGATKYADSVKGRFTISRDNAKNTFYLQMNILKPEDTAVYYCAAVVSYHYVPYGYWGQCTQVTVSS”, the “polyreactivity (PSR sort gate)” value is “low polyreactivity”.
For the sequence “QVQLVESGGGLVQAGGSLRLSCAASGSIFASYAMGWYRQAPGKERELVATITQSGGRTYYADSVKGRFTISRDNAKNTVYLQMNSLKPEDTAVYYCARRYWGGGYRMGYWGQGTQVTVSS”, the “polyreactivity (PSR sort gate)” value is reported as “high polyreactivity”.
Turning to “QVQLVESGGGLVQAGGSLRLSCAPSGRIVYYYAMGWYRHAPGKERELVASITFSGGRTFYADSVKGRFTITRDYAKNTVYLQMNSVTPEDTAVYYGAAVRCGRRSGGLVAEYDYWGQGTQVSVSS”, the “polyreactivity (PSR sort gate)” value is reported as “high polyreactivity”.
The same measure for “QVQLVESGGGLVQAGGSLRLSCAASGSTFRHNVMGWYRQAPGKERELVAAISYSGGSTHYADSVKGRFTISRDNAKNTVYLQMNSLKPEDTAVYYCNRYSYDSHFLYPFRGHDYWGQGTQVTVSS”: “low polyreactivity”.
